Source: patent US20170082633A1 (WHITEHEAD INSTITUTE FOR BIOMEDICAL RESEARCH, published 2017)

What was measured:
endogenous p18 = target: T1, endogenous p18 (UniProt Q6IAA8 2-161); assay: FLAG IP from HEK-293T cells stably expressing the bait, immunoblot
T1 construct: Detected by immunoblot in anti-FLAG immunoprecipitates; also called LAMTOR1
Method: (§1) Transfection mixes were taken up to a total of 5 μg of DNA using empty pRK5. HEK-293T cells stably expressing FLAG-tagged proteins were rinsed once with ice-cold PBS and lysed in ice-cold lysis buffer (40 mM HEPES pH 7.4, 1% Triton X-100, 10 mM β-glycerol phosphate, 10 mM pyrophosphate, 2.5 mM MgC12 and 1 tablet of EDTA-free protease inhibitor (Roche) per 25 ml buffer). The soluble fractions from cell lysates were isolated by centrifugation at 13,000 rpm for 10 min in a microcentrifuge. […] Immunoprecipitates were washed three times with lysis buffer containing 500 mM NaCl. Immunoprecipitated proteins were denatured by the addition of 50 μL of sample buffer and incubation at RT for 30 min. It is critical that the samples containing SLC38A9 are neither boiled nor frozen prior to resolution by SDS-PAGE and analysis by immunoblotting. A similar protocol was employed when preparing samples for mass spectrometry.

endogenous RagC = target: T2, endogenous RagC (UniProt Q9HB90 2-399); assay: as above
T2 construct: Detected by immunoblot in anti-FLAG immunoprecipitates; also called RagC GTPase
T2 sequence (Q9HB90 2-399 limits assumed): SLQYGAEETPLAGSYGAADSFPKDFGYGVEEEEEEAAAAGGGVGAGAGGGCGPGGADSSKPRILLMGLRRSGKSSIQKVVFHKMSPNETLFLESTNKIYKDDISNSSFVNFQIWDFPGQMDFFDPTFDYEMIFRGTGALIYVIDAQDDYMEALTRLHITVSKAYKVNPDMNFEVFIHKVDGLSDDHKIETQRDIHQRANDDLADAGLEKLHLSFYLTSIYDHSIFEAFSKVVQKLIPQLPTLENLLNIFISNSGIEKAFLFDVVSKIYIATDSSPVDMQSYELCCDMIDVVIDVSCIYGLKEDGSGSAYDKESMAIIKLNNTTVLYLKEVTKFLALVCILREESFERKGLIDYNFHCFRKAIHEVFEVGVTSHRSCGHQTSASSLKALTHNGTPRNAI
Method: as §1

endogenous RagA = target: T3, endogenous RagA (UniProt Q7L523 1-313); assay: FLAG IP from transfected HEK-293T cells, immunoblot
T3 construct: Detected by immunoblot in anti-FLAG immunoprecipitates; also called RagA GTPase
T3 sequence (Q7L523 whole entry): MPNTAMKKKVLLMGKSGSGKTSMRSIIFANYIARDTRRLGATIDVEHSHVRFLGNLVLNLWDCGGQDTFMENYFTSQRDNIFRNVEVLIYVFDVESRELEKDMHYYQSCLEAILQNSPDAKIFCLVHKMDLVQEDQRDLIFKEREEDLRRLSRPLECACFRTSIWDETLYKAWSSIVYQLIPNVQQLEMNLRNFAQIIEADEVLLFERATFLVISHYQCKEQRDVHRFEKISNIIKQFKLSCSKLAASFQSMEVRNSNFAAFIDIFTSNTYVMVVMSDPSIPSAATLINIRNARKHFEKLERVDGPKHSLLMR
Method: (§2) HEK-293T cells were cultured in DMEM supplemented with 10% inactivated fetal bovine serum, penicillin (100 IU/mL), and streptomycin (100 μg/mL) and maintained at 37° C. and 5% CO₂. Two million HEK-293T cells were plated in 10 cm culture dishes.
as §1

endogenous Ragulator = endogenous Ragulator (UniProt Q6IAA8 2-161; Q9Y2Q5 1-125; Q9UHA4 1-124; Q0VGL1 1-99; O43504 1-91); assay: anti-FLAG co-immunoprecipitation from HEK-293T cells, immunoblot
Method: as §2, §1

[1] = target: co-expressed epitope tagged Ragulator proteins (UniProt Q6IAA8 2-161; Q9Y2Q5 1-125; Q9UHA4 1-124; Q0VGL1 1-99; O43504 1-91); assay: FLAG IP (FLAG-p14) from HEK-293T cells co-transfected with the HA-tagged Ragulator components and HA-SLC38A9.4; immunoblot
raptor = target: T4, raptor (human (HEK-293T cells), UniProt Q8N122); assay: FLAG IP from transfected HEK-293T cells, immunoblot
T4 construct: endogenous; Named only on the sheet
T4 sequence (Q8N122 whole entry): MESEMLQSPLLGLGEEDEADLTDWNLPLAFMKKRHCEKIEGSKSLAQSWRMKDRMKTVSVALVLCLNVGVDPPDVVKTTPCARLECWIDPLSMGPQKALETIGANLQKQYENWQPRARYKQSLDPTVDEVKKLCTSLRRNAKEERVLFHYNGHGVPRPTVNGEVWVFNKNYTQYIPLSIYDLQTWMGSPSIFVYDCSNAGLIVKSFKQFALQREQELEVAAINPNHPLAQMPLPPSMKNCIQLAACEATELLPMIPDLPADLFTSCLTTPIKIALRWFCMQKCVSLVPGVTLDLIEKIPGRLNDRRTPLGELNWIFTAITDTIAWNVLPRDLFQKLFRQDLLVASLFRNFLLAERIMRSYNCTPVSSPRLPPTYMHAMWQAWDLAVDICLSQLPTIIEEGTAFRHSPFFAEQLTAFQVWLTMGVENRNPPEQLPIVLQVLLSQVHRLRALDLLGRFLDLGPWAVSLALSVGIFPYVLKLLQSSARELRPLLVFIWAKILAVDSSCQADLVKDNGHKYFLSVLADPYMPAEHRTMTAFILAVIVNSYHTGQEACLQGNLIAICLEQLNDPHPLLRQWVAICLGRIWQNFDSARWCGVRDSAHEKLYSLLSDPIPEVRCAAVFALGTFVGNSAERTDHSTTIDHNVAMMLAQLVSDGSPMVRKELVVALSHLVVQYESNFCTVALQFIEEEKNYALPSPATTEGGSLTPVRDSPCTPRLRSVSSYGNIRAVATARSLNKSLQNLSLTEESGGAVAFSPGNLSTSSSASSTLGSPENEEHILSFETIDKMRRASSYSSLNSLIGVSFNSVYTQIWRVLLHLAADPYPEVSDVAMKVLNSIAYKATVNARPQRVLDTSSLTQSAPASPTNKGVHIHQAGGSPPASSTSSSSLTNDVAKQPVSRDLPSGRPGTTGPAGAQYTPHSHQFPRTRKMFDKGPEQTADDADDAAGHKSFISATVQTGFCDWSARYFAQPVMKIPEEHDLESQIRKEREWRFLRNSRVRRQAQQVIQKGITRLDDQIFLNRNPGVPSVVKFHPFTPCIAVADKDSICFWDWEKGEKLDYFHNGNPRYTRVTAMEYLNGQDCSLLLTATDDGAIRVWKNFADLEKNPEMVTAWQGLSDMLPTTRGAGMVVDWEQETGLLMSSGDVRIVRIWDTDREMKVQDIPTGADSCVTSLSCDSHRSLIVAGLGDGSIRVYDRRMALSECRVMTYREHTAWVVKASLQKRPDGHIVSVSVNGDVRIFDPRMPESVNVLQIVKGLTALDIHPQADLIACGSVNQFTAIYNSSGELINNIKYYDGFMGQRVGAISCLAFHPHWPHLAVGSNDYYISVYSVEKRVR
Method: as §2, §1

endogenous SLC38A9 = target: T5, endogenous SLC38A9 (human, UniProt Q8NBW4 1-561, limits assumed); assay: FLAG IP from HEK-293T cells stably expressing the bait, - or + amino acids; immunoblot
T5 construct: Endogenous protein of HEK-293T cells, found by LC-MS-MS or immunoblot; also called SLC38A9 (NCBI Gene ID: 153129)
T5 sequence: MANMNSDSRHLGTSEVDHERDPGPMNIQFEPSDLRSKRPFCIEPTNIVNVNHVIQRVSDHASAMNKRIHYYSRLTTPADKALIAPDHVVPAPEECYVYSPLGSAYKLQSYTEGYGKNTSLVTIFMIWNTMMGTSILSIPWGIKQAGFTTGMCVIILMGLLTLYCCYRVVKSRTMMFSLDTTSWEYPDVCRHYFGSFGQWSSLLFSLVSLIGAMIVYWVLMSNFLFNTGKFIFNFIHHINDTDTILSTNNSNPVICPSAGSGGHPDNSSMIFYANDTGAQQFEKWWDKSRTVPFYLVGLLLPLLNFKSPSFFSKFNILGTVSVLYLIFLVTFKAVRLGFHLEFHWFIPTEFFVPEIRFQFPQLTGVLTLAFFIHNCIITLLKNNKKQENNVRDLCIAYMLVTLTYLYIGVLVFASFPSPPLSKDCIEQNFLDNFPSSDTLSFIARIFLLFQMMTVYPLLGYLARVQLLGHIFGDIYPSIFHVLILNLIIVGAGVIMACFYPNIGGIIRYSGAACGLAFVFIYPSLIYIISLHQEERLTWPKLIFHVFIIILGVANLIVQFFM

B1: FLAG-N-terminal 119 fragment of SLC38A9.1 (other)
chain: DYKDDDDKMANMNSDSRHLGTSEVDHERDPGPMNIQFEPSDLRSKRPFCIEPTNIVNVNHVIQRVSDHASAMNKRIHYYSRLTTPADKALIAPDHVVPAPEECYVYSPLGSAYKLQSYTEGYGKNTS
binding result (endogenous p18): binds | binding result (endogenous RagC): binds | binding result (endogenous RagA): binds | binding result (endogenous Ragulator): binds

B2: HA-SLC38A9.4 (other)
single chain: LVTIFMIWNTMMGTSILSIPWGIKQAGFTTGMCVIILMGLLTLYCCYRVVKSRTMMFSLDTTSWEYPDVCRHYFGSFGQWSSLLFSLVSLIGAMIVYWVLMSNFLFNTGKFIFNFIHHINDTDTILSTNNSNPVICPSAGSGGHPDNSSMIFYANDTGAQQFEKWWDKSRTVPFYLVGLLLPLLNFKSPSFFSKFNILGTVSVLYLIFLVTFKAVRLGFHLEFHWFIPTEFFVPEIRFQFPQLTGVLTLAFFIHNCIITLLKNNKKQENNVRDLCIAYMLVTLTYLYIGVLVFASFPSPPLSKDCIEQNFLDNFPSSDTLSFIARIFLLFQMMTVYPLLGYLARVQLLGHIFGDIYPSIFHVLILNLIIVGAGVIMACFYPNIGGIIRYSGAACGLAFVFIYPSLIYIISLHQEERLTWPKLIFHVFIIILGVANLIVQFFM
notes: also called HA-tagged SLC38A9 isoform 4
binding result [1]: no binding

B3: FLAG-metap2 (enzyme)
chain: DYKDDDDKMAGVEEVAASGSHLNGDLDPDDREEGAASTAEEAAKKKRRKKKKSKGPSAAGEQEPDKESGASVDEVARQLERSALEDKERDEDDEDGDGDGDGATGKKKKKKKKKRGPKVQTDPPSVPICDLYPNGVFPKGQECEYPPTQDGRTAAWRTTSEEKKALDQASEEIWNDFREAAEAHRQVRKYVMSWIKPGMTMIEICEKLEDCSRKLIKENGLNAGLAFPTGCSLNNCAAHYTPNAGDTTVLQYDDICKIDFGTHISGRIIDCAFTVTFNPKYDTLLKAVKDATNTGIKCAGIDVRLCDVGEAIQEVMESYEVEIDGKTYQVKPIRNLNGHSIGQYRIHAGKTVPIVKGGEATRMEEGEVYAIETFGSTGKGVVHDDMECSHYMKNFDVGHVPIRLPRTKHLLNVINENFGTLAFCRRWLDRLGESKYLMALKNLCDLGIVDPYPPLCDIKGSYTAQFEHTILLRPTCKEVVSRGDDY
notes: Control bait; also called control protein Metap2
binding result (raptor): no binding | binding result (endogenous SLC38A9): no binding

B4: FLAG-SLC38A9.1 (other)
chain: DYKDDDDKMANMNSDSRHLGTSEVDHERDPGPMNIQFEPSDLRSKRPFCIEPTNIVNVNHVIQRVSDHASAMNKRIHYYSRLTTPADKALIAPDHVVPAPEECYVYSPLGSAYKLQSYTEGYGKNTSLVTIFMIWNTMMGTSILSIPWGIKQAGFTTGMCVIILMGLLTLYCCYRVVKSRTMMFSLDTTSWEYPDVCRHYFGSFGQWSSLLFSLVSLIGAMIVYWVLMSNFLFNTGKFIFNFIHHINDTDTILSTNNSNPVICPSAGSGGHPDNSSMIFYANDTGAQQFEKWWDKSRTVPFYLVGLLLPLLNFKSPSFFSKFNILGTVSVLYLIFLVTFKAVRLGFHLEFHWFIPTEFFVPEIRFQFPQLTGVLTLAFFIHNCIITLLKNNKKQENNVRDLCIAYMLVTLTYLYIGVLVFASFPSPPLSKDCIEQNFLDNFPSSDTLSFIARIFLLFQMMTVYPLLGYLARVQLLGHIFGDIYPSIFHVLILNLIIVGAGVIMACFYPNIGGIIRYSGAACGLAFVFIYPSLIYIISLHQEERLTWPKLIFHVFIIILGVANLIVQFFM
notes: Lysosomal membrane amino acid transporter, expressed in HEK-293T cells and immunoprecipitated from Triton X-100 lysate with anti-FLAG gel; also called SLC38A9 isoform 1; full-length SLC38A9
binding result (endogenous Ragulator): binds
